Assay results as given in US20260242493A1.

How the values were obtained:
[1] = target: recombinant human CD40L (BioLegend Cat. #591706) (human) (UniProt P29965); assay: ELISA on coated rhCD40L; lower limit of IC50
[2] = target: recombinant human FcγRI (human) (UniProt P12314); assay: ELISA: test protein coated, recombinant human FcγRI titrated, anti-CD64 detection, A450
Sequence of recombinant human FcγRI (human) (P12314 16-288 limits assumed): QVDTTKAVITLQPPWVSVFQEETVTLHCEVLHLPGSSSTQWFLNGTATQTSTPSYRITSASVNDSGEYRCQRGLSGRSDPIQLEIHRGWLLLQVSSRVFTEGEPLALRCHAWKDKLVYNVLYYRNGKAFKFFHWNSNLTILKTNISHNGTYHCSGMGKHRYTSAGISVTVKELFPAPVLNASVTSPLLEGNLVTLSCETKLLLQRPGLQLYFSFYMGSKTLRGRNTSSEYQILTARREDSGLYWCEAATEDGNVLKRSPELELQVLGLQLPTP

Sequence of recombinant human CD40L (BioLegend Cat. #591706) (human) (P29965 113-261 limits assumed, form in doubt): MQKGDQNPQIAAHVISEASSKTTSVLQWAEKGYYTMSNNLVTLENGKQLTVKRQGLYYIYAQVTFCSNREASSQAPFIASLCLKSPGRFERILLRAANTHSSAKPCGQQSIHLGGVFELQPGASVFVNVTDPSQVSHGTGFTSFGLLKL

- LCL [1]: 0.04
- EC50 (read off the curve) [2]: 0.2 µg/mL
Substance: anti-CD40L antibody 5c8 (reference antibody)
